Patent US7026148

Target: bovine calmodulin (Sigma), P62157

B1: FLAG-tagged wild type DRP-1 (DAP-kinase-related protein 1) (protein)
chain: MEPFKQQKVEDFYDIGEELGSGQFAIVKKCREKSTGLEYAAKFIKKRQSRASRRGVSREEIEREVSILRQVLHHNVITLHDVYENRTDVVHILELVSGGELFDFLAQKESLSEEEATSFIKQILDGVNYLHTKKIAHFDLKPENIMLLDKNIPIPHIKLIDFGLAHEIEDGVEFKNIFGTPEFVAPEIVNYEPLGLEADMWSIGVITYILLSGASPFLGDTKQETLANITSVSYDFDEEFFSHTSELAKDFIRKLLVKETRKRLTIQEALRHPWITPVDNQQAMVRRESVVNLENFRKQYVRRRWKLSFSIVSLCNHLTRSLMKKVHLRPDEDLRNCESDTEEDIARRKALHPRRRSSTS
Q: With B1 as the protein, how does the “amount of phosphorylated MLC in the in vitro kinase assay” value read?
A: The addition of Ca2+/calmodulin to the reaction mixture increased the amount of phosphorylated MLC
